Experimental findings from patent US7067633B2, “Targeting cellular entry, cell survival, and pathogenicity by dynein light chain 1/PIN in human cells” (Board of Regents, The University of Texas System, priority 2003, dated 2006) are described below.

The subject of one experiment is SKBR-3 cells. The experiment can be described thus: Pak1-mediated macropinocytosis, vesicle formation by confocal microscopy. Type of experiment: cell-based, human. The protocol:
FIG. 3—Requirement of DLC1/PIN in Pak1 mediated macropinocytosis. SKBR-3 cells were cotransfected with RFP-DLC1/PIN and GFP-Pak1 (upper panel), RFP-DLC1/PIN-S88A, and GFP-Pak1 (middle panel) and RFP-DLC1-1-66, and GFP-Pak1 (lower panel). Vesicle formation and localization of GFP and RFP proteins were analyzed by confocal microscopy. Ten randomly selected fields were analyzed for each condition. The experiment was repeated twice with similar results. Quantitation of vesicles formation was done using the following scoring system. −, cells containing 0–9 vesicles; +, cells containing 10–20 vesicles; and ++, cells containing >20 vesicles.
Requirement of DLC1/PIN in Pak1 mediated macropinocytosis. […] The inventors have used the fluorescein isothiocyanate (FITC)-labeled Dextran as a marker of endocytosis using a well-established dextran beads uptake assay (Dharmawardhane et al., 2000). […]
SK-BR3 cells were cotransfected with RFP-DLC1 and GFP-Pak1 (upper panel), RFP-DLC1-S88A and GFP-Pak1 (middle panel), and RFP-DLC8-1-66 and GFP-Pak1 (bottom panel). Vesicle formation and localization of GFP and RFP proteins were analyzed by confocal microscopy. Ten randomly selected fields were analyzed for each condition. […]

A further experiment concerns Human dendritic cells. The experiment in a line: Macropinocytosis in dendritic cells, FITC-dextran uptake. Type of experiment: cell-based. The conditions noted are these: expression in human dendritic cells. The procedure:
FIG. 16—DLC1 is required for macropinocytosis in dendritic cells. Human dendritic cells were plated on cover sips in 6-well tissue culture plates, transfected with RFP-DLC1 wild type or DLC1-1-66 mutant lacking Pak1 binding and phosphorylation sites. After 12 hours, FITC-dextran was added to the culture medium for 20 min and cells were fixed and stained with Topro-3 (a DNA dye) and analyzed by confocal microscopy for RFP-DLC1 (red) or RFP-DLC1-1-66 (red) and FITC-dextran (green). White arrows point to RFP-DLC1-1-66 transfected cells and red arrows point to cells transfected with RFP-DLC1.
Human dendritic cells were plated on cover slips in 6-well tissue culture plates, transfected with RFP-DLC1 wild type or DLC1-1-66 mutant lacking Pak1 binding and phosphorylation sites. After 12 hours, FITC-dextran was added to the culture medium for 20 min and cells were fixed and stained with Topro-3 (a DNA dye) and analyzed by confocal microscopy for RFP-DLC1 (red) or RFP-DLC1-1-66 (red) and FITC-dextran (green). White arrows point to RFP-DLC1-1-66 transfected cells and red arrows point to cells transfected with RFP-DLC1.

In experiment [1] the test system is ER transactivation (ERE-luc). The experiment can be described thus: ERE-luc transactivation assay. The note with it: compared to the wild type DLC1. Type of experiment: cell-based, human.
Experimental: MCF-7/DA-Pak1 cells were transfected with ERE-luc, treated with or without Dox for 24 h and then with or without E2 (10^−9M) and/or Tam (10^−8M) for 24 h, and ERE-luc activity was measured. […] FIG. 20D: MCF-7/TAM-Sen and MCF-7/TAMR1 cells were transfected with ERE-luc and treated with E2 or Tam for 24 h and ERE-luc activity was measured. […] FIG. 20L: Ishikawa cells were cotransfected with Pak1 siRNA control or Pak1 siRNA wt and treated with or without Tam (10^−8M) for 24 h and ERE-luc activity was measured.
Ishikawa and MCF-7/TAMR1 cells were transfected with control or Pak1 siRNA for 48 h and then with ERE-luc for 24 h and treated with E2 (10^−9M) for 24 h and ERE-luc activity was measured. […] Ishikawa cells were treated with control or and Pak1 and DLC siRNA for 48 h and then transfected with ERE-luc and treated with Tam (10^−8M) for 24 h and ERE-luc activity was measured.
The subject of another experiment is DLC1/PIN. The experiment in a line: In vivo 32P-orthophosphate labeling and immunoprecipitation of T7-DLC1/PIN. Type of experiment: cell-based, human. The conditions noted are these: MCF-7 cells, coexpression with T7-DLC1/PIN. The procedure:
FIGS. 2A–2G—MapDLC1/PINg of interaction domains of Pak1 and DLC1/PIN. FIG. 2A: Identification of Pak1 domains that interact with DLC1/PIN. GST-Pak1 fusion proteins containing wild-type (amino acids 1–545), kinase domain (amino acids 270–545), N-terminal domain (amino acids 1–132), PIX binding domain (amino acids 132–270), Nck-binding domain (amino acids 1–75), Cdc42/Rac-interacting (CRIB) domain (amino acids 52–132), and auto-inhibitory domain (amino acids 75–149) were incubated with in vitro translated DLC1/PIN (amino acids 1–89), and binding was analyzed by GST pull-down assay. FIG. 2B: Identification of the DLC1/PIN region that is involved in the binding of Pak1. GST-fusions of various lengths of DLC1/PIN were used in the GST pull-down assay using ^35S-labelled Pak1 (amino acids 1–545). FIGS. 2C–2G—Pak1 phosphorylation of DLC1/PIN. FIG. 2C: In vitro kinase assay using GST-DLC1/PIN as a substrate and purified bacterially expressed Pak1 as an enzyme. MBP was used as a positive control. FIG. 2D: ZR75R cells stably expressing T7-DLC1/PIN were labeled in vivo with ^32P-orthophosphate, serum starved, treated with EGF or HRG, and immunoprecipitated and phosphorylation status of DLC1/PIN was visualized by autoradiography. […] Cells were metabolically labeled with ^32P orthophosphate, treated with or without EGF (1 nM) and phosphorylation of T7-DLC1/PIN was analyzed by immunoprecipitation. […]

The subject of the next experiment is DLC1 promoter. The experiment can be described thus: DLC1 promoter luciferase reporter. Type of experiment: cell-based, human. The note with it: MCF-7 cells, expression of inhibitor. The procedure:
FIGS. 21A–21J—Estrogenic signals upregulate DLC1 expression via Pak1 pathway. FIG. 21A: DLC1 upregulation by E2 or Tam. MCF-7/Tam-sen, MCF-7/TAMR1 and Ishikawa cells were treated with E2 (10^−9M) or Tam (10^−9M) for 24 h, and cell lysates were assayed for DLC1 and Pak1 protein expression. FIG. 21B: Upregulation of DLC1 mRNA in MCF-7 cells treated with different doses of E2 for 24 h. FIG. 21C: Effect of different periods of E2 treatment and cycloheximide (CHX) and Actinomycin D (ACTD) treatment on the ability of E2 to upregulate DLC1 mRNA in MCF-7 cells. FIG. 21D: DLC1 mRNA and protein levels in MCF-7/DA-Pak1 cells by Northern and Western blotting. FIG. 21E: DLC1 mRNA and protein levels in MCF-7/DN-Pak1 cells by Northern and Western blotting. FIG. 21F: Downregulation of DLC1 protein expression in MCF-7 cells treated with Pak1-siRNA for 24 h. FIG. 21G: Modulation of DLC1 promoter (1245 bp) luc activity by the expression of wtPak1 or DN-Pak1. MCF-7 cells were transfected with DLC1-luc and transfected with either wtPak1 or Pak1 inhibitor 83-149 and luc activity was measured after 24 h. FIG. 21H: Upregulation of DLC1 promoter luc activity following pak1 induction in MCF-7/DA-Pak 1 cells. FIG. 21I: Downegulation of DLC1 promoter luc activity in MCF-7/DN-pak1 cells. […]

B1: DLC1-66 peptide: SEQ ID NO:11; DLC1/PIN mutant, amino acids 1–66, lacking the C-terminal 23 amino acids (Pak1 binding and phosphorylation sites) (protein, listed as Homo sapiens)
chain: MCDRKAVIKNADMSEEMQQDSVECATQALEKYNIEKDIAAHIKKEFDKKYNPTWHCIVGRNFGSYV
Regarding B1, the “transfected cells in which formation of vesicles was completely blocked” value with SKBR-3 cells (cotransfected with GFP-Pak1) is reported as “more than 80%”. The macropinocytic functions entry in the experiment with SKBR-3 cells (expression in human breast cancer cell line SKBR3) and with Human dendritic cells was “blocks macropinocytic functions” throughout.

B2: DLC1 1-68R mutant: DLC1 mutant lacking amino acids 67–89, behaves as a dominant-negative (protein, UniProt P63167 1-66, looked up, fragment)
chain: MCDRKAVIKNADMSEEMQQDSVECATQALEKYNIEKDIAAHIKKEFDKKYNPTWHCIVGRNFGSYV
In the case of B2, the “ERE-transactivation in the presence of tamoxifen” value in experiment [1] was “reduced ERE-transactivation”.

B3: […] Pak1 auto inhibitory fragment used as an inhibitor (Pak1 amino acids 83–149) (protein, UniProt Q13153 83-149, looked up, fragment)
chain: HTIHVGFDAVTGEFTGMPEQWARLLQTSNITKSEQKKNPQAVLDVLEFYNSKKTSNSQKYMSFTDKS
Consider B3, for which, in the experiment with DLC1/PIN, the “EGF-stimulated DLC1/PIN phosphorylation” value is “completely blocked”. In the experiment with DLC1 promoter, the DLC1 promoter activity result is “suppressed”.
